Biological target: filamentous actin polymerized from human platelet actin (human) (UniProt P60709)
Assay: co-sedimentation

Substance	percent reduction of actin-binding activity relative to WT
human MAP2C T293E (from UniProt P11137-2 1-471) (natural protein)	43%
human MAP2C T300E (from UniProt P11137-2 1-471) (natural protein)	43%
